According to article PMC3400432 (Developmental Cell, 2012):
Blank lines part the entries; values can stand above or below the binder they belong to.

B1: epsin1-Venus (natural protein, rat, UniProt O88339 1-575, looked up)
chain: MSTSSLRRQMKNIVHNYSEAEIKVREATSNDPWGPSSSLMSEIADLTYNVVAFSEIMSMIWKRLNDHGKNWRHVYKAMTLMEYLIKTGSERVSQQCKENMYAVQTLKDFQYVDRDGKDQGVNVREKAKQLVALLRDEDRLREERAHALKTKEKLAQTATASSAAVGSGPPPEAEQAWPQSSGEEELQLQLALAMSKEEADQPPSCGPEDDVQLQLALSLSREEHDKEERIRRGDDLRLQMAIEESKRETGGKEESSLMDLADVFTTPAPPQASDPWGGPASVPTAVPVAAAASDPWGAPAVPPAADPWGGAAPTPASGDPWRPAAPTGPSVDPWGGTPAPAAGEGPTSDPWGSADGGAPVSGPPSSDPWAPAPAFSDPWGGSPAKPSSNGTAVGGFDTEPDEFSDFDRLRTALPTSGSSTGELELLAGEVPARSPGAFDMSGVGGSLAESVGSPPPAATPTPTPPTRKTPESFLGPNAALVDLDSLVSRPGPTPPGAKASNPFLPSGAPATGPSVTNPFQPAPPATLTLNQLRLSPVPPVPGAPPTYISPLGGGPGLPPMMPPGPPAPNTNPFLL
B3: Delta-like 1 (Dll1) (ligand, UniProt P97677 18-714, looked up)
chain: QVWSSGVFELKLQEFVNKKGLLGNRNCCRGGSGPPCACRTFFRVCLKHYQASVSPEPPCTYGSAVTAVLGVDSFSLPDGAGIDPAFSNPIRFPFGFTWPGTFSLIIEALHTDSPDDLATENPERLISRLTTQRHLTVGEEWSQDLHSSGRTDLRYSYRFVCDEHYYGEGCSVFCRPRDDAFGHFTCGERGEKMCDPGWKGQYCTDPICLPGCDDQHGYCDKPGECKCRVGWQGRYCDECIRYPGCLHGTCQQPWQCNCQEGWGGLFCNQDLNYCTHHKPCRNGATCTNTGQGSYTCSCRPGYTGANCELEVDECAPSPCRNGGSCTDLEDSYSCTCPPGFYGKVCELSAMTCADGPCFNGGRCSDNPDGGYTCHCPAGFSGFNCEKKIDLCSSSPCSNGAKCVDLGNSYLCRCQTGFSGRYCEDNVDDCASSPCANGGTCRDSVNDFSCTCPPGYTGRNCSAPVSRCEHAPCHNGATCHQRGQRYMCECAQGYGGANCQFLLPEPPPDLIVAAQGGSFPWVAVCAGVVLVLLLLLGCAAVVVCVRLKLQKHQPPPDPCGGETETMNNLANCQREKDVSVSIIGATQIKNTNKKADFHGDHGADKSSFKARYPTVDYNLIRDLKGDEATVRDAHSKRDTKCQSQGSVGEEKSTSTLRGGEVPDRKRPESVYSTSKDTKYQSVYVLSAEKDECVIATEV

What was measured:
Assay in all cases: co-IP
Delta-like 1 (Dll1) = biological target: B3
Myc-epsin1 = biological target: T1, Myc-epsin1 (UniProt O88339 1-575)
T1 sequence (looked up): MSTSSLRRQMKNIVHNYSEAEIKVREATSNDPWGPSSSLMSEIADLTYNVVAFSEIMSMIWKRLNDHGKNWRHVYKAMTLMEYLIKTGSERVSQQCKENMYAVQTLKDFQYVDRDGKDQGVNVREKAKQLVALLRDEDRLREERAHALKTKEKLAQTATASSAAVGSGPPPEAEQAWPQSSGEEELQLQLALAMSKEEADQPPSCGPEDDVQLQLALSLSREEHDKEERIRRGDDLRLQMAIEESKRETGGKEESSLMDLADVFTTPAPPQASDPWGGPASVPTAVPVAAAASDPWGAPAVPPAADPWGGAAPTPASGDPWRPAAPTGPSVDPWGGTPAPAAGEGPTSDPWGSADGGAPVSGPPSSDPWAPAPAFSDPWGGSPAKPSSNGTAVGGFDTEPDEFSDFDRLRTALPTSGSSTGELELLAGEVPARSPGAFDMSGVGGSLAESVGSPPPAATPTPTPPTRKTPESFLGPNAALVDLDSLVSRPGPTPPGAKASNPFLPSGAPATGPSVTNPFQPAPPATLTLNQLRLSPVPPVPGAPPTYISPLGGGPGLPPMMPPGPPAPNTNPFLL

epsin1-Venus = biological target: B1

Binder: B1
fold increase of the co-IP, cells on N1Fc- against Fc-plates (Delta-like 1 (Dll1)): 1.8 fold

fold decrease of the co-IP with PAR-1T560A-eGFP (Myc-epsin1): 2 fold
B2: Dll1 expressed in 293T cells (ligand, UniProt P97677 18-714, looked up)
chain: QVWSSGVFELKLQEFVNKKGLLGNRNCCRGGSGPPCACRTFFRVCLKHYQASVSPEPPCTYGSAVTAVLGVDSFSLPDGAGIDPAFSNPIRFPFGFTWPGTFSLIIEALHTDSPDDLATENPERLISRLTTQRHLTVGEEWSQDLHSSGRTDLRYSYRFVCDEHYYGEGCSVFCRPRDDAFGHFTCGERGEKMCDPGWKGQYCTDPICLPGCDDQHGYCDKPGECKCRVGWQGRYCDECIRYPGCLHGTCQQPWQCNCQEGWGGLFCNQDLNYCTHHKPCRNGATCTNTGQGSYTCSCRPGYTGANCELEVDECAPSPCRNGGSCTDLEDSYSCTCPPGFYGKVCELSAMTCADGPCFNGGRCSDNPDGGYTCHCPAGFSGFNCEKKIDLCSSSPCSNGAKCVDLGNSYLCRCQTGFSGRYCEDNVDDCASSPCANGGTCRDSVNDFSCTCPPGYTGRNCSAPVSRCEHAPCHNGATCHQRGQRYMCECAQGYGGANCQFLLPEPPPDLIVAAQGGSFPWVAVCAGVVLVLLLLLGCAAVVVCVRLKLQKHQPPPDPCGGETETMNNLANCQREKDVSVSIIGATQIKNTNKKADFHGDHGADKSSFKARYPTVDYNLIRDLKGDEATVRDAHSKRDTKCQSQGSVGEEKSTSTLRGGEVPDRKRPESVYSTSKDTKYQSVYVLSAEKDECVIATEV

Binder: B3
fold increase of the co-IP, cells on N1Fc- against Fc-coated dishes (epsin1-Venus): 1.9 fold
